Here are results for one substance from PMC9094124.

The target in assay [1] is c-JO4 (cGMP-compliant JO4 junction opener protein) (human adenovirus serotype 3). The assay is described as follows: SDS-PAGE, not boiled and not reduced; 4-15% gradient gel, running buffer with 0.1% SDS, 1 ug protein, sample not boiled and not reduced.
Assay [2] has the same target. The assay is described as follows: SEC + other: negative-stain electron microscopy; SEC on Superdex 200 Increase 10/300 in TBS, 1 mL/min; EM with 1% sodium silicotungstate pH 7.0, protein at 0.1 mg/ml.

A word on the stoichiometry N: it is the number of molecules, sites or subunits per partner or assembly. In the case of “c-JO4 (cGMP-compliant JO4 junction opener protein) (domain or fragment)”, the figures for the stoichiometry N in assay [1] and in assay [2] were 3 and 6, respectively.
